Data published in article PMC12669963, “PGAM5 cleavage and oligomerization equilibrates mitochondrial dynamics under stress by regulating DRP1 function” (Journal of Cell Science, 2025).

Target: the molecule itself
Assay: native gel or EMSA; native-PAGE of U2OS lysates (50 mM Tris-HCl pH 7.4, 150 mM NaCl, 0.5% Triton X-100), steady state or CCCP, immunoblot for endogenous PGAM5

B1: endogenous PGAM5 (natural protein, human (endogenous in HEK293 and U2OS), UniProt Q96HS1 1-289, looked up)
chain: MAFRQALQLAACGLAGGSAAVLFSAVAVGKPRAGGDAEPRPAEPPAWAGGARPGPGVWDPNWDRREPLSLINVRKRNVESGEEELASKLDHYKAKATRHIFLIRHSQYHVDGSLEKDRTLTPLGREQAELTGLRLASLGLKFNKIVHSSMTRAIETTDIISRHLPGVCKVSTDLLREGAPIEPDPPVSHWKPEAVQYYEDGARIEAAFRNYIHRADARQEEDSYEIFICHANVIRYIVCRALQFPPEGWLRLSLNNGSITHLVIRPNGRVALRTLGDTGFMPPDKITRS
notes: endogenous PGAM5; source: endogenous, HEK293 and U2OS lysate
stoichiometry N: 2
